# Patent publication US20260001928A1 (CORTERIA PHARMACEUTICALS, priority 2022, published 2026)
# *1 amine or outer side, *2 acyl side, *3 side chain or, on linkers, in order; H or OH if unused. Side-chain parts run from the residue outwards. [ ]: non-standard residue; d: D form. The star is where a group is joined. γGlu = O=C(O)[C@H](CCC(=O)[*:2])N[*:1]; C14 diacid = O=C(O)CCCCCCCCCCCCC(=O)*; C12 diacid = O=C(O)CCCCCCCCCCC(=O)*; Pentanoyl = CCCCC(=O)*; AEEA = NCCOCCOCC(=O)O; Aib = CC(C)(N)C(=O)O
# T1: CRF1R receptor (UniProt P34998 24-415, limits assumed)
# T1 sequence (looked up): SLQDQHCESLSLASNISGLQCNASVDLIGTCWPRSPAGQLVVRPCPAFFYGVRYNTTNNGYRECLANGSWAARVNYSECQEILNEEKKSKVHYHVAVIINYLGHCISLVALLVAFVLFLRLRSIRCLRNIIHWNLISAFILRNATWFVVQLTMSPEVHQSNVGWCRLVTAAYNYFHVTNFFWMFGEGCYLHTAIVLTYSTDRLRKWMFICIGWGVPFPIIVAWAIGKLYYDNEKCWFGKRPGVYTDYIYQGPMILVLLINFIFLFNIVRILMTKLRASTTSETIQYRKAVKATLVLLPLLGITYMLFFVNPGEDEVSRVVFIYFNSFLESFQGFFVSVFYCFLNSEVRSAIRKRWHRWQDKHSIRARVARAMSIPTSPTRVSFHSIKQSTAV
# B1: SEQ ID NO 182 (peptide)
# peptide: Ac-IVLSLD[dV]PIKLK([γGlu-C12 diacid])KILLEQEKQKKQREQAETN[Aib]QILAQV-NH2
# SMILES: CC[C@H](C)[C@H](NC(C)=O)C(=O)N[C@H](C(=O)N[C@@H](CC(C)C)C(=O)N[C@@H](CO)C(=O)N[C@@H](CC(C)C)C(=O)N[C@@H](CC(=O)O)C(=O)N[C@@H](C(=O)N1CCC[C@H]1C(=O)N[C@H](C(=O)N[C@@H](CCCCN)C(=O)N[C@@H](CC(C)C)C(=O)N[C@@H](CCCCNC(=O)CC[C@H](NC(=O)CCCCCCCCCCC(=O)O)C(=O)O)C(=O)N[C@@H](CCCCN)C(=O)N[C@H](C(=O)N[C@@H](CC(C)C)C(=O)N[C@@H](CC(C)C)C(=O)N[C@@H](CCC(=O)O)C(=O)N[C@@H](CCC(N)=O)C(=O)N[C@@H](CCC(=O)O)C(=O)N[C@@H](CCCCN)C(=O)N[C@@H](CCC(N)=O)C(=O)N[C@@H](CCCCN)C(=O)N[C@@H](CCCCN)C(=O)N[C@@H](CCC(N)=O)C(=O)N[C@@H](CCCNC(=N)N)C(=O)N[C@@H](CCC(=O)O)C(=O)N[C@@H](CCC(N)=O)C(=O)N[C@@H](C)C(=O)N[C@@H](CCC(=O)O)C(=O)N[C@H](C(=O)N[C@@H](CC(N)=O)C(=O)NC(C)(C)C(=O)N[C@@H](CCC(N)=O)C(=O)N[C@H](C(=O)N[C@@H](CC(C)C)C(=O)N[C@@H](C)C(=O)N[C@@H](CCC(N)=O)C(=O)N[C@H](C(N)=O)C(C)C)[C@@H](C)CC)[C@@H](C)O)[C@@H](C)CC)[C@@H](C)CC)C(C)C)C(C)C
# B2: SEQ ID NO 181 (peptide)
# peptide: Pentanoyl-VLSLD[dV]PIKLK([AEEA-AEEA-γGlu-γGlu-C14 diacid])KILLEQEKQKKQREQAETN[Aib]QILAQV-NH2
# SMILES: CCCCC(=O)N[C@H](C(=O)N[C@@H](CC(C)C)C(=O)N[C@@H](CO)C(=O)N[C@@H](CC(C)C)C(=O)N[C@@H](CC(=O)O)C(=O)N[C@@H](C(=O)N1CCC[C@H]1C(=O)N[C@H](C(=O)N[C@@H](CCCCN)C(=O)N[C@@H](CC(C)C)C(=O)N[C@@H](CCCCNC(=O)COCCOCCNC(=O)COCCOCCNC(=O)CC[C@H](NC(=O)CC[C@H](NC(=O)CCCCCCCCCCCCC(=O)O)C(=O)O)C(=O)O)C(=O)N[C@@H](CCCCN)C(=O)N[C@H](C(=O)N[C@@H](CC(C)C)C(=O)N[C@@H](CC(C)C)C(=O)N[C@@H](CCC(=O)O)C(=O)N[C@@H](CCC(N)=O)C(=O)N[C@@H](CCC(=O)O)C(=O)N[C@@H](CCCCN)C(=O)N[C@@H](CCC(N)=O)C(=O)N[C@@H](CCCCN)C(=O)N[C@@H](CCCCN)C(=O)N[C@@H](CCC(N)=O)C(=O)N[C@@H](CCCNC(=N)N)C(=O)N[C@@H](CCC(=O)O)C(=O)N[C@@H](CCC(N)=O)C(=O)N[C@@H](C)C(=O)N[C@@H](CCC(=O)O)C(=O)N[C@H](C(=O)N[C@@H](CC(N)=O)C(=O)NC(C)(C)C(=O)N[C@@H](CCC(N)=O)C(=O)N[C@H](C(=O)N[C@@H](CC(C)C)C(=O)N[C@@H](C)C(=O)N[C@@H](CCC(N)=O)C(=O)N[C@H](C(N)=O)C(C)C)[C@@H](C)CC)[C@@H](C)O)[C@@H](C)CC)[C@@H](C)CC)C(C)C)C(C)C
# Tests used:
# [1] = molecular target: human corticotropin-releasing factor 2a (CRF2a receptor) (human), Q13324; experiment: cell-based or functional assay
# [2] = molecular target: T1, CRF1R receptor; experiment: cell-based or functional assay
# Chain of human corticotropin-releasing factor 2a (CRF2a receptor) (human), Q13324 (Q13324 20-411): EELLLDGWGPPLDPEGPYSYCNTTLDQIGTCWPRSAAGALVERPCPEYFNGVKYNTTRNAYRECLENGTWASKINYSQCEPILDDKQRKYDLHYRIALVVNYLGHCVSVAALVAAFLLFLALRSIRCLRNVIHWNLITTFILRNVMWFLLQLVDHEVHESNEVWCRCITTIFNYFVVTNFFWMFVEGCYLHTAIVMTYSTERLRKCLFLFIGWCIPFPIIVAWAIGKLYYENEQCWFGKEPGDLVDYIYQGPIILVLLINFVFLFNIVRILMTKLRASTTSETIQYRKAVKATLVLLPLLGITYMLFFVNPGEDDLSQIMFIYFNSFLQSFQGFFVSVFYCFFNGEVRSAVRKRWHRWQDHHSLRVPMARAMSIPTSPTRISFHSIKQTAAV
Binder,EC50 [nM] (cAMP) [1],Emax (% I) [2]
B1,1.88 nM,1%
B2,24.7 nM,9%
